In the supplement of paper PMC9112550, “Optimization of the antimicrobial peptide Bac7 by deep mutational scanning” (BMC Biology, 2022):

System: Escherichia coli TOP10
Assay: shrunken log2 fold change of peptide-encoding DNA abundance (4.5 h post-induction vs induction); higher = less antimicrobial activity (less host growth inhibition)
Conditions: time post-induction: 4.5 h; library: site-saturation at positions 5, 18, 19, 20
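Note: peptides expressed intracellularly from a pBAD plasmid library in pooled LB shake-flask culture, induced with 0.3% L-arabinose, DNA abundance read by NGS, three biological replicates, DESeq2 with apeglm shrinkage.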

Sequence | shrunken log2 fold change
RRIRRRPPRLPRPRPRPDIYPRP | 0.0543
RRIRLRPPRLPRPRPRPMSQPRP | -0.219
RRIRRRPPRLPRPRPRPYYSPRP | -0.532
RRIRYRPPRLPRPRPRPCWLPRP | 0.0283
RRIRKRPPRLPRPRPRPASPPRP | 0.122
RRIRQRPPRLPRPRPRPDCKPRP | -0.0311
RRIRKRPPRLPRPRPRPCLCPRP | -0.138
RRIRHRPPRLPRPRPRPCFMPRP | -0.404
RRIRLRPPRLPRPRPRPFETPRP | -0.241
RRIRYRPPRLPRPRPRPLNAPRP | -0.859
RRIRPRPPRLPRPRPRPTREPRP | 0.177
RRIRGRPPRLPRPRPRPAVWPRP | 0.71
RRIRARPPRLPRPRPRPTQIPRP | 0.553
RRIRPRPPRLPRPRPRPDWEPRP | 0.19
RRIRYRPPRLPRPRPRPFHCPRP | -0.0983
RRIRFRPPRLPRPRPRPPAGPRP | 0.727
RRIRERPPRLPRPRPRPQDVPRP | -0.177
RRIRVRPPRLPRPRPRPVPQPRP | 0.324
RRIRMRPPRLPRPRPRPSNWPRP | 0.225
RRIRIRPPRLPRPRPRPLVKPRP | -0.0899
RRIRERPPRLPRPRPRPNHWPRP | -0.138
RRIRPRPPRLPRPRPRPPYRPRP | 0.103
RRIRFRPPRLPRPRPRPTKEPRP | -0.0335
RRIRERPPRLPRPRPRPVGMPRP | -0.0934
RRIRMRPPRLPRPRPRPTCPPRP | 0.128

Sequence | shrunken log2 fold change
RRIRKRPPRLPRPRPRPSMAPRP | 0.0554
RRIRNRPPRLPRPRPRPWHLPRP | -0.0913
RRIRKRPPRLPRPRPRPMEIPRP | 0.155
RRIRMRPPRLPRPRPRPTECPRP | 0.0996
RRIRKRPPRLPRPRPRPTLSPRP | 0.0214
RRIRSRPPRLPRPRPRPKWSPRP | -0.132
RRIRTRPPRLPRPRPRPMYWPRP | -0.131
RRIRIRPPRLPRPRPRPNKKPRP | -0.0918
RRIRQRPPRLPRPRPRPLEAPRP | 0.225
RRIRDRPPRLPRPRPRPGTNPRP | -0.344
RRIRFRPPRLPRPRPRPWGEPRP | 0.0156
RRIRERPPRLPRPRPRPRYGPRP | 1.59
RRIRFRPPRLPRPRPRPVDCPRP | -0.0595
RRIRLRPPRLPRPRPRPFKMPRP | -0.388
RRIRIRPPRLPRPRPRPTYCPRP | -0.214
RRIRLRPPRLPRPRPRPSVYPRP | -0.584
RRIRRRPPRLPRPRPRPSEEPRP | 0.125
RRIRKRPPRLPRPRPRPNQAPRP | -0.171
RRIRERPPRLPRPRPRPHIVPRP | -0.0314
RRIRHRPPRLPRPRPRPACPPRP | -0.0965
RRIRPRPPRLPRPRPRPQAKPRP | 0.277
RRIRMRPPRLPRPRPRPRQGPRP | -0.0232
RRIRARPPRLPRPRPRPTTCPRP | 0.0733
RRIRCRPPRLPRPRPRPDNFPRP | -0.489
RRIRQRPPRLPRPRPRPPRSPRP | 0.601
